# Laboratory results reported in patent US20240293512A1 (HANMI PHARM, published 2024).
# Bridge positions count the residues as written; N and C are the ends. Square brackets hold non-standard residues; d marks the D form. Ends that are not written are not given here. * marks the point of attachment. Acetyl(2-(4-imidazolyl)) = O=C(Cc1c[nH]cn1)*; Aib = CC(C)(N)C(=O)O
# B1: triple agonist of SEQ ID NO: 56 (peptide)
# peptide: H[Aib]QGTFTSDYSKYLDEKRQKEFVNWLLAQC
# modifications: bridge (positions not given here); also: ring formation between two underlined residues
# Target: human GLP-1 receptor (human, UniProt P43220 24-463)
# Test: cell-based or functional assay
row,Binder,In vitro activity compared with native peptide (%) vs GLP-1 (cAMP EC50) [%]
1,Y[Aib]QGTFTSDYSKYLDEKRAKEFVQWLLDHHCSSGQPPPS (not fully specified (bridges)) [triple agonist of SEQ ID NO: 43],12.6
2,H[Aib]QGTFTSDVSSYLDGQAAKEFVAWLLKGC [triple agonist of SEQ ID NO: 6],17
3,{Acetyl(2-(4-imidazolyl))}-[Aib]QGTFTSDYSICMDEKHQKDFVNWLLNTK (bridge 15-19) [triple agonist of SEQ ID NO: 59],40.3
4,HGQGTFTSDCSKQLDGQAAQEFVAWLLAGGPSSGAPPPS [triple agonist of SEQ ID NO: 44],1.3
5,HGQGTFTSDCSKYLDEQHAQEFVAWLLAGGPSSGAPPPS [triple agonist of SEQ ID NO: 46],1.4
6,HGQGTFTSDCSKYLDGQRAQDFVNWLLAGGPSSGAPPPS [triple agonist of SEQ ID NO: 48],1.5
7,HGQGTFTSDCSKYMDGQAAQDFVAWLLAGGPSSGAPPPS [triple agonist of SEQ ID NO: 45],6.6
8,HGQGTFTSDCSKYLDGQRAQEFVAWLLAGGPSSGAPPPS [triple agonist of SEQ ID NO: 47],2.4
9,[Acetyl(2-(4-imidazolyl))][Aib]QGTFTSDYSICMDEIHQKDFVNWLLNTK (bridge 16-20) [triple agonist of SEQ ID NO: 49],29.8
10,H[Aib]QGTFTSDYSKYLDEKRQKEFVQWLLDTC (bridge 16-20) [triple agonist of SEQ ID NO: 52],44.1
11,{Acetyl(2-(4-imidazolyl))}-[Aib]QGTFTSDYSIAMDEKHCKDFVNWLLNTK (bridge 15-19) [triple agonist of SEQ ID NO: 60],106
12,H[Aib]EGTFTSDYSIAMDEIHQKDFVNWLLAQC (bridge 16-20) [triple agonist of SEQ ID NO: 53],161
13,H[Aib]QGTFTSDYSKYLDEKRQKEFVQWLLNTKC (bridge 16-20) [triple agonist of SEQ ID NO: 58],39.1
14,B1,57.9
15,H[Aib]QGTFTSDYSIAMDEIHQKDFVNWLLAQC (bridge 16-20) [triple agonist of SEQ ID NO: 55],27.1
16,H[Aib]EGTFTSDYSIAMDEIHQKDFVDWLLAEC (bridge 16-20) [triple agonist of SEQ ID NO: 54],30.6
17,H[Aib]QGTFTSDYSKYLDEKRQKEFVQWLLNTC (bridge 16-20) [triple agonist of SEQ ID NO: 51],14.4
18,H[Aib]QGTFTSDYSIAMDEIHQKDFVNWLLNTC (bridge 16-20) [triple agonist of SEQ ID NO: 57],11.7
19,H[Aib]QGTFTSDYSKYLDEKRAKEFVQWLLDHHPSSGQPPPSC (bridge 16-20) [triple agonist of SEQ ID NO: 50],67.4
20,H[Aib]QGTFTSDVSSYLLGQQQKEFIAWLVKGGGPSSGAPPPSC [triple agonist of SEQ ID NO: 5],42.1

# Target: human GCG receptor (human, UniProt P47871 26-477)
# Test: cell-based or functional assay
# Chain of human GCG receptor (P47871 26-477): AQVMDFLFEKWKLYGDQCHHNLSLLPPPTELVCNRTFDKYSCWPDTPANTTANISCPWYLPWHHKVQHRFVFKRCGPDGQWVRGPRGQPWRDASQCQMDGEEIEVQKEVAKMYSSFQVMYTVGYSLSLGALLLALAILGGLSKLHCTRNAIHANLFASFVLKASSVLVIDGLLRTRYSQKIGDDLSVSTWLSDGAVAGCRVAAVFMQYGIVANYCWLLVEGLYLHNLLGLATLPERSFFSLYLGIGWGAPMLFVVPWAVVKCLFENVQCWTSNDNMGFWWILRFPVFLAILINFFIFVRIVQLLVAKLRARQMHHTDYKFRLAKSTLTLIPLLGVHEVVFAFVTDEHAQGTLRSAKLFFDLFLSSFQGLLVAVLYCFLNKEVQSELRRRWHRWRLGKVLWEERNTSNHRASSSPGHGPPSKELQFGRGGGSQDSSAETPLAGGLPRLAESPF
row,Binder,In vitro activity compared with native peptide (%) vs Glucagon (cAMP EC50) [%]
1,Y[Aib]QGTFTSDYSKYLDEKRAKEFVQWLLDHHCSSGQPPPS (not fully specified (bridges)) [triple agonist of SEQ ID NO: 43],88.4
2,H[Aib]QGTFTSDVSSYLDGQAAKEFVAWLLKGC [triple agonist of SEQ ID NO: 6],< 0.1
3,{Acetyl(2-(4-imidazolyl))}-[Aib]QGTFTSDYSICMDEKHQKDFVNWLLNTK (bridge 15-19) [triple agonist of SEQ ID NO: 59],< 0.1
4,HGQGTFTSDCSKQLDGQAAQEFVAWLLAGGPSSGAPPPS [triple agonist of SEQ ID NO: 44],< 0.1
5,HGQGTFTSDCSKYLDEQHAQEFVAWLLAGGPSSGAPPPS [triple agonist of SEQ ID NO: 46],< 0.1
6,HGQGTFTSDCSKYLDGQRAQDFVNWLLAGGPSSGAPPPS [triple agonist of SEQ ID NO: 48],< 0.1
7,HGQGTFTSDCSKYMDGQAAQDFVAWLLAGGPSSGAPPPS [triple agonist of SEQ ID NO: 45],< 0.1
8,HGQGTFTSDCSKYLDGQRAQEFVAWLLAGGPSSGAPPPS [triple agonist of SEQ ID NO: 47],< 0.1
9,[Acetyl(2-(4-imidazolyl))][Aib]QGTFTSDYSICMDEIHQKDFVNWLLNTK (bridge 16-20) [triple agonist of SEQ ID NO: 49],< 0.1
10,H[Aib]QGTFTSDYSKYLDEKRQKEFVQWLLDTC (bridge 16-20) [triple agonist of SEQ ID NO: 52],7.5
11,{Acetyl(2-(4-imidazolyl))}-[Aib]QGTFTSDYSIAMDEKHCKDFVNWLLNTK (bridge 15-19) [triple agonist of SEQ ID NO: 60],< 0.1
12,H[Aib]EGTFTSDYSIAMDEIHQKDFVNWLLAQC (bridge 16-20) [triple agonist of SEQ ID NO: 53],8.4
13,H[Aib]QGTFTSDYSKYLDEKRQKEFVQWLLNTKC (bridge 16-20) [triple agonist of SEQ ID NO: 58],2.6
14,B1,4.9
15,H[Aib]QGTFTSDYSIAMDEIHQKDFVNWLLAQC (bridge 16-20) [triple agonist of SEQ ID NO: 55],0.7
16,H[Aib]EGTFTSDYSIAMDEIHQKDFVDWLLAEC (bridge 16-20) [triple agonist of SEQ ID NO: 54],1.4
17,H[Aib]QGTFTSDYSKYLDEKRQKEFVQWLLNTC (bridge 16-20) [triple agonist of SEQ ID NO: 51],2
18,H[Aib]QGTFTSDYSIAMDEIHQKDFVNWLLNTC (bridge 16-20) [triple agonist of SEQ ID NO: 57],< 0.1
19,H[Aib]QGTFTSDYSKYLDEKRAKEFVQWLLDHHPSSGQPPPSC (bridge 16-20) [triple agonist of SEQ ID NO: 50],50.5
20,H[Aib]QGTFTSDVSSYLLGQQQKEFIAWLVKGGGPSSGAPPPSC [triple agonist of SEQ ID NO: 5],< 0.1

# Target: T1, human GIP receptor (human, UniProt P48546 22-466)
# T1 sequence (looked up): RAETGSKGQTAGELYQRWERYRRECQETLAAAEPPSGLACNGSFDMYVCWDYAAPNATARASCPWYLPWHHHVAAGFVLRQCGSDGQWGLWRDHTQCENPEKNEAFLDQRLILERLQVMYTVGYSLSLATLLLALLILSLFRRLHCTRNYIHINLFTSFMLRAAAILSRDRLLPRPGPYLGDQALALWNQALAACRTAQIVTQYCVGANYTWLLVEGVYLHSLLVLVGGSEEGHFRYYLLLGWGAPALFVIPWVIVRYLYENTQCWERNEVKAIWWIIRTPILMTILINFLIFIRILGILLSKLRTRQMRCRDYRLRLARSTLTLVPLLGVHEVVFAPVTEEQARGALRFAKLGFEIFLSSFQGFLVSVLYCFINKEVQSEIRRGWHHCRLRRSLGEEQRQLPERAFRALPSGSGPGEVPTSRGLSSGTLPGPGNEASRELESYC
# Test: cell-based or functional assay
row,Binder,In vitro activity compared with native peptide (%) vs GIP (cAMP EC50) [%]
1,Y[Aib]QGTFTSDYSKYLDEKRAKEFVQWLLDHHCSSGQPPPS (not fully specified (bridges)) [triple agonist of SEQ ID NO: 43],3.7
2,H[Aib]QGTFTSDVSSYLDGQAAKEFVAWLLKGC [triple agonist of SEQ ID NO: 6],< 0.1
3,{Acetyl(2-(4-imidazolyl))}-[Aib]QGTFTSDYSICMDEKHQKDFVNWLLNTK (bridge 15-19) [triple agonist of SEQ ID NO: 59],4
4,HGQGTFTSDCSKQLDGQAAQEFVAWLLAGGPSSGAPPPS [triple agonist of SEQ ID NO: 44],< 0.1
5,HGQGTFTSDCSKYLDEQHAQEFVAWLLAGGPSSGAPPPS [triple agonist of SEQ ID NO: 46],< 0.1
6,HGQGTFTSDCSKYLDGQRAQDFVNWLLAGGPSSGAPPPS [triple agonist of SEQ ID NO: 48],< 0.1
7,HGQGTFTSDCSKYMDGQAAQDFVAWLLAGGPSSGAPPPS [triple agonist of SEQ ID NO: 45],< 0.1
8,HGQGTFTSDCSKYLDGQRAQEFVAWLLAGGPSSGAPPPS [triple agonist of SEQ ID NO: 47],< 0.1
9,[Acetyl(2-(4-imidazolyl))][Aib]QGTFTSDYSICMDEIHQKDFVNWLLNTK (bridge 16-20) [triple agonist of SEQ ID NO: 49],3.3
10,H[Aib]QGTFTSDYSKYLDEKRQKEFVQWLLDTC (bridge 16-20) [triple agonist of SEQ ID NO: 52],0.3
11,{Acetyl(2-(4-imidazolyl))}-[Aib]QGTFTSDYSIAMDEKHCKDFVNWLLNTK (bridge 15-19) [triple agonist of SEQ ID NO: 60],8.2
12,H[Aib]EGTFTSDYSIAMDEIHQKDFVNWLLAQC (bridge 16-20) [triple agonist of SEQ ID NO: 53],1.3
13,H[Aib]QGTFTSDYSKYLDEKRQKEFVQWLLNTKC (bridge 16-20) [triple agonist of SEQ ID NO: 58],0.2
14,B1,0.8
15,H[Aib]QGTFTSDYSIAMDEIHQKDFVNWLLAQC (bridge 16-20) [triple agonist of SEQ ID NO: 55],2.4
16,H[Aib]EGTFTSDYSIAMDEIHQKDFVDWLLAEC (bridge 16-20) [triple agonist of SEQ ID NO: 54],0.1
17,H[Aib]QGTFTSDYSKYLDEKRQKEFVQWLLNTC (bridge 16-20) [triple agonist of SEQ ID NO: 51],0.1
18,H[Aib]QGTFTSDYSIAMDEIHQKDFVNWLLNTC (bridge 16-20) [triple agonist of SEQ ID NO: 57],0.3
19,H[Aib]QGTFTSDYSKYLDEKRAKEFVQWLLDHHPSSGQPPPSC (bridge 16-20) [triple agonist of SEQ ID NO: 50],2.7
20,H[Aib]QGTFTSDVSSYLLGQQQKEFIAWLVKGGGPSSGAPPPSC [triple agonist of SEQ ID NO: 5],< 0.1
